Measured values published in patent publication US20080138352A1 (INSTITUT PASTEUR, published 2008).

Biological target: the molecule itself
Assay: size exclusion chromatography, Superdex 75, pH 6.0 (self-association, homodimer)

B1: recombinant Trypanosoma cruzi proline racemase TcPRACA (rTcPRACA), C-terminal His6-tagged (enzyme)
chain: GQEKLLFDQKYKIIKGEKKEKKKNQRANRREHQQKREIMRFKKSFTCIDMHTEGEAARIVTSGLPHIPGSNMAEKKAYLQENMDYLRRGIMLEPRGHDDMFGAFLFDPIEEGADLGMVFMDTGGYLNMCGHNSIAAVTAAVETGIVSVPAKATNVPVVLDTPAGLVRGTAHLQSGTESEVSNASIINVPSFLYQQDVVVVLPKPYGEVRVDIAFGGNFFAIVPAEQLGIDISVQNLSRLQEAGELLRTEINRSVKVQHPQLPHINTVDCVEIYGPPTNPEANYKNVVIFGNRQADRSPCGTGTSAKMATLYAKGQLRIGETFVYESILGSLFQGRVLGEERIPGVKVPVTKDAEEGMLVVTAEITGKAFIMGFNTMLFDPTDPFKNGFTLKQ
notes: the entry below describes its self-association into a homodimer; also called TcPA45; not shown: C-terminal six-histidine tag from pET28b(+)
binding result: binds
